Starred links: 1 amine or outer side, 2 acyl side, 3 side chain; linkers in the order of their positions; H or OH if unused. Non-standard residues stand in square brackets, D forms with d. No end group written: not given here. *: point of attachment. Phe(4-CH2SO3H) = N[C@@H](Cc1ccc(CS(=O)(=O)O)cc1)C(=O)O; sY = N[C@@H](Cc1ccc(OS(=O)(=O)O)cc1)C(=O)O; C18 diacid = O=C(O)CCCCCCCCCCCCCCCCC(=O)*; γGlu = O=C(O)[C@H](CCC(=O)[*:2])N[*:1]; Met(O2) = CS(=O)(=O)CC[C@H](N)C(=O)O; NMeF = CN[C@@H](Cc1ccccc1)C(=O)O; dNMeD = CN[C@H](CC(=O)O)C(=O)O; Nle = CCCC[C@H](N)C(=O)O; AEEA = NCCOCCOCC(=O)O
Key:
[1] = target: T1, human cholecystokinin-1 receptor (human, UniProt P32238 1-428); assay: SPA competition vs [125I]-CCK-8s, membranes
T1 construct: whole, on cells; also called CCK-1R; CCK-1 receptor
T1 sequence (looked up): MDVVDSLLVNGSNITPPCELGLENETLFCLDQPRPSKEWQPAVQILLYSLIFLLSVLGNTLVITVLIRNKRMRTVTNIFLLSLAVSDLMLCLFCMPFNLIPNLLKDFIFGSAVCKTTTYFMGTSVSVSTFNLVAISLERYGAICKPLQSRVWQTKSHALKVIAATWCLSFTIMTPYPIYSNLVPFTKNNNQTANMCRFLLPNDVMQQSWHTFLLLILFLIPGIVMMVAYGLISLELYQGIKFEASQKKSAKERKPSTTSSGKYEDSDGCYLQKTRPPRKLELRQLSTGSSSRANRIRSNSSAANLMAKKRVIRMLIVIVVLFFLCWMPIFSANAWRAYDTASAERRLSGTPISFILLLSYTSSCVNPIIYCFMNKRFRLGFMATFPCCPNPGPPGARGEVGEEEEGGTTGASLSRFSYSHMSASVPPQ
Procedure: (§1) CCK receptor binding assays were performed in 96-well Optiplates (Cat #6005290, PerkinElmer, Waltham, Mass., USA) in a total volume of 200 μl per well.
(§2) The plates were sealed and incubated in the dark at +22° C. for 2 hours on a IKA MTS plate shaker (IKA-Werke D-79219 Staufen) set at 300 rpm and thereafter centrifuged at 1500 rpm for 10 minutes in a Heraeus Multifuge 3s centrifuge. SPA bead light emission was measured in a TopCount NXT (PerkinElmer) for 2 min/well after a delay of 60 min.

[2] = target: T1, human cholecystokinin-1 receptor; assay: cell-based or functional assay
[3] = target: T2, human cholecystokinin-2 receptor (human, UniProt P32239 1-447); assay: cell-based or functional assay
T2 sequence (looked up): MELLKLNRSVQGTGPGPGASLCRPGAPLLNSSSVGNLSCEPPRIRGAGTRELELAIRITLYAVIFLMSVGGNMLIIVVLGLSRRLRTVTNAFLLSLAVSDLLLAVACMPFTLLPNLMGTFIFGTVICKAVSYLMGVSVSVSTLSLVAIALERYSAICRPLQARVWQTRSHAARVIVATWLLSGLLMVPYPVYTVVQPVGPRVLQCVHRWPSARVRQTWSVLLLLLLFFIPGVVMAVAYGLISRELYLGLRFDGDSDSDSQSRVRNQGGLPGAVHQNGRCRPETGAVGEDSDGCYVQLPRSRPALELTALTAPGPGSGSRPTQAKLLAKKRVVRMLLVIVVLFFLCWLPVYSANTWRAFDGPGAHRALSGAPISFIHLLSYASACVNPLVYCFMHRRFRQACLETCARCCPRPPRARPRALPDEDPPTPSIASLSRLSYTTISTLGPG

[4] = target: T3, human cholecystokinin-1 receptor (human), P32238; assay: cell-based or functional assay
T3 chain: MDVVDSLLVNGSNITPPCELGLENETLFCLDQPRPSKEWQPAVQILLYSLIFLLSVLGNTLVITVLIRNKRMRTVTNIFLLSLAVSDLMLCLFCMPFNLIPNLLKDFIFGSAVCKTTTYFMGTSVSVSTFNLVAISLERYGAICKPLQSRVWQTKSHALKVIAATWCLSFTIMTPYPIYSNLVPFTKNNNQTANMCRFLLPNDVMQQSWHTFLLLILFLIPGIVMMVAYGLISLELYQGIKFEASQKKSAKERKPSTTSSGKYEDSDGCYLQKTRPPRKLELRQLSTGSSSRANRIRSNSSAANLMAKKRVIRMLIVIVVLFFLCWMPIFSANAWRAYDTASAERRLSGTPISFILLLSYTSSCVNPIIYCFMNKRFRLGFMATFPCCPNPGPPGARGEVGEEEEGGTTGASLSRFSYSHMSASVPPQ

[5] = target: T3, human cholecystokinin-1 receptor …; assay: SPA competition vs [125I]-CCK-8s, membranes
[6] = target: T2, human cholecystokinin-2 receptor; assay: SPA competition vs [125I]-CCK-8s, membranes
Procedure: as §1, §2

[7] = target: T4, human cholecystokinin-2 receptor (human), P32239; assay: cell-based or functional assay
T4 chain: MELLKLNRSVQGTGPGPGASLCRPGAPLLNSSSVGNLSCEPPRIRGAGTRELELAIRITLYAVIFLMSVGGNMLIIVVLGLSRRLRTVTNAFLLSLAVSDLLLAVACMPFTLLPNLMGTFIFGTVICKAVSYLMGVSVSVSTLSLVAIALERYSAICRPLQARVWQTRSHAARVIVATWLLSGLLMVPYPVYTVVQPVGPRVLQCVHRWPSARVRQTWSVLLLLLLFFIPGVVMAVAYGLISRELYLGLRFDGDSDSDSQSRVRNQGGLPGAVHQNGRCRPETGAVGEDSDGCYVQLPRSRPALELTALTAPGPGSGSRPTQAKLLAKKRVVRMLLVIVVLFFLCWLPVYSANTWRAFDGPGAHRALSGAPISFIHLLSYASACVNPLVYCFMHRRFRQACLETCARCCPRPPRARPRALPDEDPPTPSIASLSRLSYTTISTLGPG

Binder	IC50 [1]	EC50 (CCK-1R) [2]	EC50 (CCK-2R) [3]	EC50 (CCK-1R) [4]	IC50 [5]	IC50 [6]	EC50 (CCK-2R) [7]
[sY][Nle]GW[Nle][dNMeD][NMeF]-NH2 (N-terminus assumed; SMILES CCCC[C@H](NC(=O)[C@@H](N)Cc1ccc(OS(=O)(=O)O)cc1)C(=O)NCC(=O)N[C@@H](Cc1c[nH]c2ccccc12)C(=O)N[C@@H](CCCC)C(=O)N(C)[C@H](CC(=O)O)C(=O)N(C)[C@@H](Cc1ccccc1)C(N)=O, X = Nle or Nal) [sTyr-Nle-Gly-Trp-Nle-DMeAsp-MePhe-amide]	0.06 nM	0.33 nM	> 1000 nM	–	–	–	–
{C18 diacid-γGlu-AEEA-AEEA}-D[sY]LGW[Met(O2)][dNMeD][NMeF]-NH2	0.64 nM	0.14 nM	> 1000 nM	–	–	–	–
{C18 diacid-γGlu-AEEA-AEEA}-E[sY]LGWQ[dNMeD][NMeF]-NH2	0.097 nM	0.22 nM	> 1000 nM	–	–	–	–
D[sY]LGWV[DMeAsp][NMeF]-NH2 [Asp-sTyr-Leu-Gly-Trp-Val-DMeAsp-MePhe-amide]	–	–	> 1000 nM	0.34 nM	0.62 nM	–	–
{C18 diacid-γGlu-AEEA-AEEA}-D[sY][Nle]GW[Nle][dNMeD]W-NH2 (SMILES CCCC[C@H](NC(=O)[C@H](Cc1ccc(OS(=O)(=O)O)cc1)NC(=O)[C@H](CC(=O)O)NC(=O)COCCOCCNC(=O)COCCOCCNC(=O)CC[C@H](NC(=O)CCCCCCCCCCCCCCCCC(=O)O)C(=O)O)C(=O)NCC(=O)N[C@@H](Cc1c[nH]c2ccccc12)C(=O)N[C@@H](CCCC)C(=O)N(C)[C@H](CC(=O)O)C(=O)N[C@@H](Cc1c[nH]c2ccccc12)C(N)=O, X = Nle or Nal)	0.91 nM	0.24 nM	> 1000 nM	–	–	3000 nM	–
{C18 diacid-γGlu-AEEA-AEEA}-K[AEEA]D[Phe(4-CH2SO3H)][Nle]GW[Nle][dNMeD][NMeF]-NH2 (X = Nle or Nal)	0.081 nM	–	–	–	–	7400 nM	–
{C18 diacid-γGlu-AEEA-AEEA}-D[sY]AGW[Nle][dNMeD][NMeF]-NH2 (SMILES CCCC[C@H](NC(=O)[C@H](Cc1c[nH]c2ccccc12)NC(=O)CNC(=O)[C@H](C)NC(=O)[C@H](Cc1ccc(OS(=O)(=O)O)cc1)NC(=O)[C@H](CC(=O)O)NC(=O)COCCOCCNC(=O)COCCOCCNC(=O)CC[C@H](NC(=O)CCCCCCCCCCCCCCCCC(=O)O)C(=O)O)C(=O)N(C)[C@H](CC(=O)O)C(=O)N(C)[C@@H](Cc1ccccc1)C(N)=O, X = Nle or Nal)	0.068 nM	0.22 nM	97 nM	–	–	280 nM	–
{C18 diacid-γGlu-AEEA-AEEA}-D[sY]FGW[Nle][dNMeD][NMeF]-NH2 (SMILES CCCC[C@H](NC(=O)[C@H](Cc1c[nH]c2ccccc12)NC(=O)CNC(=O)[C@H](Cc1ccccc1)NC(=O)[C@H](Cc1ccc(OS(=O)(=O)O)cc1)NC(=O)[C@H](CC(=O)O)NC(=O)COCCOCCNC(=O)COCCOCCNC(=O)CC[C@H](NC(=O)CCCCCCCCCCCCCCCCC(=O)O)C(=O)O)C(=O)N(C)[C@H](CC(=O)O)C(=O)N(C)[C@@H](Cc1ccccc1)C(N)=O, X = Nle or Nal)	0.065 nM	0.41 nM	390 nM	–	–	5600 nM	–
D[sY]SGW[Nle][dNMeD][NMeF]-NH2 (N-terminus assumed; SMILES CCCC[C@H](NC(=O)[C@H](Cc1c[nH]c2ccccc12)NC(=O)CNC(=O)[C@H](CO)NC(=O)[C@H](Cc1ccc(OS(=O)(=O)O)cc1)NC(=O)[C@@H](N)CC(=O)O)C(=O)N(C)[C@H](CC(=O)O)C(=O)N(C)[C@@H](Cc1ccccc1)C(N)=O, X = Nle or Nal) [Asp-sTyr-Ser-Gly-Trp-Nle-DMeAsp-MePhe-amide]	0.035 nM	0.19 nM	> 1000 nM	–	–	3600 nM	–
D[sY]AGW[Nle][dNMeD][NMeF]-NH2 (N-terminus assumed; SMILES CCCC[C@H](NC(=O)[C@H](Cc1c[nH]c2ccccc12)NC(=O)CNC(=O)[C@H](C)NC(=O)[C@H](Cc1ccc(OS(=O)(=O)O)cc1)NC(=O)[C@@H](N)CC(=O)O)C(=O)N(C)[C@H](CC(=O)O)C(=O)N(C)[C@@H](Cc1ccccc1)C(N)=O, X = Nle or Nal) [Asp-sTyr-Ala-Gly-Trp-Nle-DMeAsp-MePhe-amide]	0.055 nM	0.16 nM	> 1000 nM	–	–	–	–
D[sY]KGW[Nle][dNMeD][NMeF]-NH2 (N-terminus assumed; SMILES CCCC[C@H](NC(=O)[C@H](Cc1c[nH]c2ccccc12)NC(=O)CNC(=O)[C@H](CCCCN)NC(=O)[C@H](Cc1ccc(OS(=O)(=O)O)cc1)NC(=O)[C@@H](N)CC(=O)O)C(=O)N(C)[C@H](CC(=O)O)C(=O)N(C)[C@@H](Cc1ccccc1)C(N)=O, X = Nle or Nal) [Asp-sTyr-Lys-Gly-Trp-Nle-DMeAsp-MePhe-amide]	0.03 nM	0.26 nM	> 1000 nM	–	–	–	–
{C18 diacid-γGlu-AEEA-AEEA}-D[sY]KGW[Nle][dNMeD][NMeF]-NH2 (X = Nle or Nal)	0.099 nM	0.36 nM	310 nM	–	–	–	–
{C18 diacid-γGlu-AEEA-AEEA}-D[sY]SGW[Nle][dNMeD][NMeF]-NH2 (SMILES CCCC[C@H](NC(=O)[C@H](Cc1c[nH]c2ccccc12)NC(=O)CNC(=O)[C@H](CO)NC(=O)[C@H](Cc1ccc(OS(=O)(=O)O)cc1)NC(=O)[C@H](CC(=O)O)NC(=O)COCCOCCNC(=O)COCCOCCNC(=O)CC[C@H](NC(=O)CCCCCCCCCCCCCCCCC(=O)O)C(=O)O)C(=O)N(C)[C@H](CC(=O)O)C(=O)N(C)[C@@H](Cc1ccccc1)C(N)=O, X = Nle or Nal)	0.058 nM	–	940 nM	–	–	4700 nM	–
D[sY]LGWL[DMeAsp][NMeF]-NH2 [Asp-sTyr-Leu-Gly-Trp-Leu-DMeAsp-MePhe-amide]	–	–	> 1000 nM	0.25 nM	0.042 nM	–	–
{C18 diacid-γGlu-AEEA-AEEA}-D[sY]LGWA[DMeAsp][NMeF]-NH2	–	–	–	0.17 nM	0.65 nM	–	880 nM
D[Phe(4-CH2SO3H)][Nle]GW[Nle][dNMeD][NMeF]-NH2 (N-terminus assumed; SMILES CCCC[C@H](NC(=O)[C@H](Cc1ccc(CS(=O)(=O)O)cc1)NC(=O)[C@@H](N)CC(=O)O)C(=O)NCC(=O)N[C@@H](Cc1c[nH]c2ccccc12)C(=O)N[C@@H](CCCC)C(=O)N(C)[C@H](CC(=O)O)C(=O)N(C)[C@@H](Cc1ccccc1)C(N)=O, X = Nle or Nal) [Asp-Phe(4-sulfomethyl)-Nle-Gly-Trp-Nle-DMeAsp-MePhe-amide]	0.046 nM	0.25 nM	> 1000 nM	–	–	–	–
{C18 diacid-γGlu-AEEA-AEEA}-[sY][Nle]GW[Nle][dNMeD][NMeF]-NH2 (SMILES CCCC[C@H](NC(=O)[C@H](Cc1ccc(OS(=O)(=O)O)cc1)NC(=O)COCCOCCNC(=O)COCCOCCNC(=O)CC[C@H](NC(=O)CCCCCCCCCCCCCCCCC(=O)O)C(=O)O)C(=O)NCC(=O)N[C@@H](Cc1c[nH]c2ccccc12)C(=O)N[C@@H](CCCC)C(=O)N(C)[C@H](CC(=O)O)C(=O)N(C)[C@@H](Cc1ccccc1)C(N)=O, X = Nle or Nal)	0.039 nM	0.37 nM	440 nM	–	–	6500 nM	–
D[sY]LGWP[DMeAsp][NMeF]-NH2 [Asp-sTyr-Leu-Gly-Trp-Pro-DMeAsp-MePhe-amide]	–	–	> 1000 nM	0.34 nM	0.11 nM	–	–

Source: US20170008928A1, “NOVEL PEPTIDES AND PEPTIDE DERIVATIVES AND USES THEREOF” (Novo Nordisk A/S, priority 2015, published 2017)
